Data taken from patent US20240010747A1, “ANTI-MRP4 (ENCODED BY ABCC4 GENE) ANTIBODIES AND USES THEREOF” (Kenjockety Biotechnology, Inc., priority 2020, published 2024).

Columns and labels:
[1] = system: cynomolgus ABCC4; test: Flow cytometry (FACS) binding to C6 cells stably transfected to express cynomolgus ABCC4 (Table 3 study); parameters: key to Cynomolgus ABCC4 binding: Negative (−) is defined as maximum response (Rmax(MFI)) below background level; Positive (+) is defined as MFI>1000; conditions: for Cynomolgus ABCC4 binding: C6 cells stably transfected to express cynomolgus ABCC4, FACS, Table 3
Experimental: (§1) Binding titration of recombinant antibodies to ABCC4 transfectants was performed by serial dilution of antibodies from about 666 nM. Diluted antibody in flow cytometry buffer was incubated with cells on ice for 30 min. After 2 washes with flow cytometry buffer, bound antibody was detected with PE-labeled F(ab′)2 fragment goat anti-human IgG (Jackson ImmunoResearch) diluted 1:200 in flow cytometry buffer and incubated with cells for 20 min on ice. After 2 washes with flow cytometry buffer fluorescence was measured on an Attune N×T flow cytometer. Data were analyzed with GraphPad Prism 8.0 software to determine EC50's.
(§2) Human embryonic kidney HEK 293T cells and murine C6 (ATCC CCL-107) were transfected with human or cynomolgus ABCC4 cDNA with C-terminal fused FLAG tag in a pMONO-hygro vector with Lipofectamine 3000 (Invitrogen #L3000001). The cells were treated with 0.2 mg/ml and 0.5 mg/ml hygromycin respectively for about 2 weeks while cultivated in DMEM and 10% FBS with 0.2 mg/ml hygromycin and 0.5 mg/ml hygromycin, respectively. The cells were washed with PBS, and stained with […] of anti-FLAG-PE after fixing and permeablization. Clones expressing ABCC4 were single-cell sorted into 200 μl DMEM with 10% FBS using a BD Aria FACS machine and cultivated in 96 well plates using standard techniques in an incubator at 37° C. and 5% CO 2. Two weeks later clones expressing high levels of ABCC4 were screened and amplified.
(§3) Antibody binding to cells was evaluated by flow cytometry. Murine C6 cells stably transfected to express human or cynomolgus ABCC4 were washed once in flow cytometry buffer (PBS+2% FBS+0.02% sodium azide), resuspended at 2×10^6 cells/mL in flow cytometry buffer, and dispensed into 96-well microtiter plates at 0.1 mL/well. Recombinant antibodies were added to cells at 5 ug/mL for initial binding confirmation, or serially diluted from 100 ug/mL in flow cytometry buffer. After incubating cells on ice for 30 min, cells were washed twice with flow cytometry buffer. Bound antibody was detected with PE-labeled F(ab′)2 fragment goat anti-human IgG (Jackson ImmunoResearch) and evaluated on an Attune N×T flow cytometer. EC50 is calculated to be the concentration of antibody that gives half maximal response.
(§4) Table 3 lists the following characteristics of the rat anti-ABCC4 antibodies tested: binding to C6 cells stably transfected to express human ABCC4 measured by FACS and binding to C6 cells stably transfected to express cynomolgus ABCC4 measured by FACS. Negative (−) is defined as maximum response (Rmax(MFI)) below background level. Positive (+) is defined as MFI>1000.

[2] = target: T1, human ABCC4 (Homo sapiens, UniProt O15439); test: Flow cytometry (FACS) binding to C6 cells stably transfected to express human ABCC4 (different experiment, Table 4); conditions: for Human ABCC4 binding: C6 cells stably transfected to express human ABCC4, FACS, different experiment, Table 4; for binding to human ABCC4 expressed on cell surface: Table 4 study, stated in words
T1 construct: expressed in transfected cells
T1 sequence (O15439 1-1325): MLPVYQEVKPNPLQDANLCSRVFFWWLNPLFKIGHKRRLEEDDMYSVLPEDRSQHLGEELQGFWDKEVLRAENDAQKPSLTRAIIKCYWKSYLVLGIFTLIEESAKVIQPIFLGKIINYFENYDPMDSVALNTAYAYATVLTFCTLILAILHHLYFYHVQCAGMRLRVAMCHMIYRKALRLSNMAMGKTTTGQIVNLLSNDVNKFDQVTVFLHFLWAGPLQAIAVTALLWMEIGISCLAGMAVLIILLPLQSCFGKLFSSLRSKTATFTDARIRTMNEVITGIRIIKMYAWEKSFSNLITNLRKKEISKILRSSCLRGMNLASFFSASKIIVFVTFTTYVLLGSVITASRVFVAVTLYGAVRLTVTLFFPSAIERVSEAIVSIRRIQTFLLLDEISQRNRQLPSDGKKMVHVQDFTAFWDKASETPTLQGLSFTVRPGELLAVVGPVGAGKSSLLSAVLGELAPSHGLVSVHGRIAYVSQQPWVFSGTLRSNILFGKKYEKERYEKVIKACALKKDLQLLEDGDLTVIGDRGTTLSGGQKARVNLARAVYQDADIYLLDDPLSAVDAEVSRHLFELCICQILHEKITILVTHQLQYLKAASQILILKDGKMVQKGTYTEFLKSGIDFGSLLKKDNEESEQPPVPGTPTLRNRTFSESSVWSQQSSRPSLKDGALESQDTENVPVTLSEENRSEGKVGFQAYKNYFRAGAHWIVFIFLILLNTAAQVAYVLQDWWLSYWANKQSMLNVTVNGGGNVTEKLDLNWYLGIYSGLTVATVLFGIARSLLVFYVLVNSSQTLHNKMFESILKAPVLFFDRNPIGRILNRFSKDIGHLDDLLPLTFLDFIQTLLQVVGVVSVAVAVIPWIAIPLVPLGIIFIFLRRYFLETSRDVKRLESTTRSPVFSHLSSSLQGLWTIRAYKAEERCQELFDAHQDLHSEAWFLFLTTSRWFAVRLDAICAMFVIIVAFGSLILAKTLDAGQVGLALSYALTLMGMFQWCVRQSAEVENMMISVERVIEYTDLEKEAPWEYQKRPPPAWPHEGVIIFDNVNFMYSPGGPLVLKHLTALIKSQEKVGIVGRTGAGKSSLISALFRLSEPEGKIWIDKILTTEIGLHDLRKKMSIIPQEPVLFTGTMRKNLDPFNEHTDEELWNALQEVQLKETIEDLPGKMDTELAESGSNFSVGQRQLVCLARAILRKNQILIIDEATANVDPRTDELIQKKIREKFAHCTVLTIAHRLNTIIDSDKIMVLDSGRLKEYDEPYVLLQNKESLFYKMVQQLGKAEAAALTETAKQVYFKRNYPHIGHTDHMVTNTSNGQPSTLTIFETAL
Method in brief: (§5)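 Murine C6 cells stably expressing FLAG-tagged human or cynomolgus ABCC4 incubated 30 min on ice with antibodies, either 5 ug/mL or serially diluted from 100 ug/mL, in PBS+2% FBS+0.02% azide. Detection with PE anti-human IgG F(ab′)2 by flow cytometry; EC50 at half-maximal MFI; negative below background, positive >3× background.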

[3] = system: cynomolgus ABCC4; test: Flow cytometry (FACS) binding to C6 cells stably transfected to express cynomolgus ABCC4 (different experiment, different C6.cC4 cell line, Table 4); parameters: key to Cynomolgus ABCC4 binding: Negative (−)=Rmax (MFI) below background level; Positive (+)=MFI>3× background level; conditions: for binding to cynomolgus ABCC4 expressed on cell surface: Table 4 study, stated in words; for Cynomolgus ABCC4 binding: different C6.cC4 cell line, C6 cells stably transfected to express cynomolgus ABCC4, FACS, Table 4
Method in brief: as §5

[4] = target: T1, human ABCC4; test: Flow cytometry (FACS) binding to C6 cells stably transfected to express human ABCC4 (Table 3 study); conditions: for Human ABCC4 binding: C6 cells stably transfected to express human ABCC4, FACS, Table 3
Experimental: as §1, §2, §3, §4

B1: C4.976: anti-ABCC4 antibody raised in rats; VH SEQ ID NO: 12, VL SEQ ID NO: 132 (antibody, V domains shown)
VH: EVKLLESGGGLVQPGRSLKVSCVASGFIFSDYYMAWVRQAPTKGLEWVAYINYDGGSTYYGDSVKGRFTISRDNAKSSLYLQMNSLRFEDMATYYCARRDYGSKFDYWGQGVMVTVSS
VL: EIVIIQSPALAVSLGQRATISCKTNQNVDYYGNSYIHWYQQKPGQQPKLLIYLASNLASGIPARFSGRGSGTDFTLTIDPVEADDPATYYCQQSRNLPFTFGSGTKLELK
B1 was tested, and the “Cynomolgus ABCC4 binding” value [1] was “+ (Positive (+) is defined as MFI>1000)”, the “binding to cynomolgus ABCC4 expressed on cell surface” value (“binding to cynomolgus ABCC4 expressed” for short) ([1]; Table 3 study, stated in words) was “bind to both human and cynomolgus ABCC4” and the “Human ABCC4 binding” value [2] was “+ (Positive (+)=MFI>3× background level)”. For the same molecule, the “binding to human ABCC4 expressed on cell surface” value (“binding to human ABCC4 expressed” below) [2] was “bind to both human and cynomolgus ABCC4”, the “binding to cynomolgus ABCC4 expressed” value [3] was “bind to both human and cynomolgus ABCC4” and the “Cynomolgus ABCC4 binding” value [3] was “+ (Positive (+)=MFI>3× background level)”. For the same molecule, the “Human ABCC4 binding” value [4] was “+ (Positive (+) is defined as MFI>1000)” and the “binding to human ABCC4 expressed” value ([4]; Table 3 study, stated in words) was “bind to both human and cynomolgus ABCC4”.

B2: C4.972: anti-ABCC4 antibody raised in rats; VH SEQ ID NO: 11, VL SEQ ID NO: 132 (antibody, V domains shown)
VH: EVQLKESGPGLVQPSETLSLTCTVSGFSLTSYNVHWVRQPPGKGLEWMGVMWSGGSTDYSSALKSRLSISRDTSKNQVFLKMNSLQSEDTTTYYCARDRGGYYYDGYPHDFVYWGQGVMVTVSS
VL: EIVIIQSPALAVSLGQRATISCKTNQNVDYYGNSYIHWYQQKPGQQPKLLIYLASNLASGIPARFSGRGSGTDFTLTIDPVEADDPATYYCQQSRNLPFTFGSGTKLELK
For B2, the “Cynomolgus ABCC4 binding” value [1] was “−”, the “Human ABCC4 binding” value [2] was “+ (Positive (+)=MFI>3× background level)” and the “binding to human ABCC4 expressed” value [2] was “bind to both human and cynomolgus ABCC4”. The “binding to cynomolgus ABCC4 expressed” value [3] was “bind to both human and cynomolgus ABCC4”, the “Cynomolgus ABCC4 binding” value [3] was “+ (Positive (+)=MFI>3× background level)” and the “Human ABCC4 binding” value [4] was “+ (Positive (+) is defined as MFI>1000)”.

B3: C4.953: anti-ABCC4 antibody raised in rats; VH SEQ ID NO: 6, VL SEQ ID NO: 129 (antibody, V domains shown)
VH: QVTLKESGPGILQPSQTLSLTCTFSGFSLSTYGMGVGWIRQPSGKALEWLANIWWDDDKSYNPSLKNRLTISKGTSNNQAFLKITSVDTADSATYHCARIGSGNSEFDYWGQGVMVTVSS
VL: DVVLTQSPSSLSASLGDRVTITCRASQDIGNYLTWFQQKPGKSPRRMIYGATNLAAGVPSRFSGSRSGSDYSLTISSLESEDVADYHCLQSIQYPFTFGSGTKLEIK
With B3 the “Cynomolgus ABCC4 binding” value [1] was “−”, the “Human ABCC4 binding” value [2] was “+ (Positive (+)=MFI>3× background level)” and the “binding to human ABCC4 expressed” value [2] was “bind to both human and cynomolgus ABCC4”. For the same molecule, the “binding to cynomolgus ABCC4 expressed” value [3] was “bind to both human and cynomolgus ABCC4”, the “Cynomolgus ABCC4 binding” value [3] was “+ (Positive (+)=MFI>3× background level)” and the “Human ABCC4 binding” value [4] was “+ (Positive (+) is defined as MFI>1000)”.

B4: C4.985: anti-ABCC4 antibody raised in rats; VH SEQ ID NO: 14, VL SEQ ID NO: 134 (antibody, V domains shown)
VH: EVQLVESGGGLVQPGRSLKLSCTASGFTFNKNWMAWIRQAPGKGLEWVASITNTGGNTYYPDSVKGRFTVSRDQTISTLYLQMNSLRSEDTATYFCTRERIGSGYYVMDAWGRGASVTVSS
VL: DTVLTQSPALTVSPGERVTISCRASESVTSFMNWYQQKPGQQPKLLIYLASDLESGVPARFSGSGSGADFTLTIDPVEADDTATYYCQQSWIDPPTFGTGTKLELK
With B4 the “Cynomolgus ABCC4 binding” value [1] was “−”, the “Human ABCC4 binding” value [2] was “+ (Positive (+)=MFI>3× background level)” and the “Cynomolgus ABCC4 binding” value [3] was “−”. The “Human ABCC4 binding” value [4] was “+ (Positive (+) is defined as MFI>1000)”.

B5: C4.886: anti-ABCC4 antibody raised in rats; VH SEQ ID NO: 2, VL SEQ ID NO: 125 (antibody, V domains shown)
VH: EVKLLESGGDLLQPGRSLKLSCAASGFTFNDYNMAWVRQAPKKGLQWVATILYDGSRTYYRDSVKGRFTISRDNSKSTLYLQMDSLRSEDTATYYCTTEFGYGSSHWFACWGQGTLVTVSS
VL: DVVLTQTPVSLPVSLGGQASISCRSSQSLVHSNGNTYLHWYLQKPGQSPQLLISRISNRFSGVPDRFSGSGSGTDFTLKISRVEPEDLGDYYCFQSTHFPHTFGAGTKLEIK
With B5 the “Cynomolgus ABCC4 binding” value [1] was “−”, the “Human ABCC4 binding” value [2] was “+ (Positive (+)=MFI>3× background level)” and the “binding to human ABCC4 expressed” value [2] was “bind to both human and cynomolgus ABCC4”. For the same molecule, the “binding to cynomolgus ABCC4 expressed” value [3] was “bind to both human and cynomolgus ABCC4”, the “Cynomolgus ABCC4 binding” value [3] was “+ (Positive (+)=MFI>3× background level)” and the “Human ABCC4 binding” value [4] was “+ (Positive (+) is defined as MFI>1000)”.
